In patent publication US20210024635A1 (IMMATICS BIOTECHNOLOGIES, published 2021):
Where a chain is given by its changes, count along the chain named.

B1: Cyprus (IgG1) (antibody, V domains shown)
VH: QVQLVESGGGLVKPGGSLRLSCAASGFTFSDYYMSWIRQAPGKGLEWVSYISSSGSTIYYADSVKGRFTISRDNAKNSLYLQMNSLRAEDTAVYYCARDGLRYFYGFDYWGQGTLVTVSS
VL: QSVLTQPPSVSAAPGQKVTISCSGSSSNIGNNYVSWYQQLPGTAPKLLIYDNNKRPSGIPDRFSGSKSGTSATLGITGLQTEDEADYYCQAWVHYSLVHWVFGGGTKLTVLG
B2: Daniel (Fab) (Fab, V domains shown)
VH: QVQLVQSGAEVKKPGASVKVSCKASGYTFTSYYMHWVRQAPGQGLEWMGIINPSGGSTSYAQKFQGRVTMTRDTSTSTVYMELSSLRSEDTAVYYCAREGYTPGGSYTFDIWGQGTLVTVSS
VL: B1 VL with Q90G, A91S, V93D, H94G, Y95F, S96V, L97S, V98S, H99Y, W100S
notes: Tested in monovalent Fab format
B3: Daniel (IgG1) (antibody, V domains shown)
VH: B2 VH
VL: B1 VL with Q90G, A91S, V93D, H94G, Y95F, S96V, L97S, V98S, H99Y, W100S
B4: Fiwi (IgG1) (antibody, V domains shown)
VH: EVQLVESGGGLVKPGGSLRLSCAASGFTFSNYWISWVRQAPGKGLEWVGRIKSKTYGGTTDYAEPVKGRFTISRDDSKNTLYLQMNSLKTEDTAVYYCARGRYPELGYFDLWGQGTLVTVSS
VL: B1 VL with Q90G, V93D, H94S, S96L, L97S, H99S, W100F
B5: Cyprus (Fab) (Fab, V domains shown)
VH: B1 VH
VL: B1 VL
notes: as for B2
B6: Fiwi (Fab) (Fab, V domains shown)
VH: B4 VH
VL: B1 VL with Q90G, V93D, H94S, S96L, L97S, H99S, W100F
notes: as for B2
B7: Aali (IgG1) (antibody, V domains shown)
VH: QVQLVESGGGLVKPGGSLRLSCAASGFTFSDHYISWIRQAPGKGLEWVSYISSSGSTTYYAESVKGRFTISRDNAKNSLYLQMNSLRAEDTAVYYCARTYAYRYDFDLWGQGTLVTVSS
VL: QSVLTQPPSVSGAPGQRVTISCTGSSSNIGAGYDVHWYQQLPGTAPKLLIYGNSNRPSGVPDRFSGSKSGTSASLAITGLQAEDEADYYCQTWVHSYSTPVFGGGTKLTVLG
B8: Aali (Fab) (Fab, V domains shown)
VH: B7 VH
VL: B7 VL
notes: Tested in monovalent Fab format; also called Aali Fab fragment
B9: Bibi (IgG1) (antibody, V domains shown)
VH: EVQLVESGGGLVKPGGSLRLSCAASGFTFSSYSMNWVRQAPGKGLEWVSSISSSSSYIYYADSVKGRFTISRDNAKNSLYLQMNSLRAEDTAVYYCARTESVWHLGFDIWGQGTLVTVSS
VL: DIQMTQSPSSVSASVGDRVTITCRASQGISSWLAWYQQKPGKAPKLLIYAASSLQSGVPSRFSGSGSGTDFTLTISSLQPEDFATYYCQQNHKYPITFGQGTKVEIKR
B10: Elfu (IgG1) (antibody, V domains shown)
VH: EVQLVQSGAEVKKPGESLKISCKGSGYSFTSYWISWVRQMPGKGLEWMGIIYPGTSYTRYSPSFQGQVTISADKSISTAYLQWSSLKASDTAMYYCARGYHLPYFDYWGQGTLVTVSS
VL: QSVLTQPPSVSGAPGQRVTISCTGSSSNIGAGYDVHWYQQLPGTAPKLLIYGNSNRPSGVPDRFSGSKSGTSASLAITGLQAEDEADYYCQAYASPTRVVFGGGTKLTVLG

Columns and labels:
[1] = target: T1, WT1 RMF peptide/HLA-A0201 complex (isolated, recombinant, biotinylated) (human); experiment: ELISA on Neutravidin plates, IgG; '++' = EC50 below 10 nM, '+' = EC50 of more than 10 nM
T1 construct: also called RMF/HLA; RMF/HLA complex

[2] = target: T1, WT1 RMF peptide/HLA-A0201 complex …; experiment: ELISA on Neutravidin plates, IgG
[3] = target: T1, WT1 RMF peptide/HLA-A0201 complex …; experiment: ELISA as in Example 3; biotinylated peptide/HLA complex coated at 50 nM on Neutravidin plates, IgG titrated, AP-conjugated goat anti-human IgG, RFU
[4] = target: T2, PIGQ peptide/HLA-A0201 complex (human, biotinylated (site not stated)); experiment: as above
T2 construct: Negative control / counter target complex; also called PIGQ/HLA; PIGQ/HLA complex

[5] = target: T3, RMF/HLA complex on antigen-positive cancer cells (SET2, BV173) (human); experiment: flow cytometry on BV173 cells, IgG; '++' = EC50 below 10 nM, '+' = EC50 of more than 10 nM
T3 construct: whole, on cells; Naturally presented complex on SET2 (DSMZ ACC 608) and BV173 (DSMZ ACC 20) cells; also called RMF/HLA complex on cells; WT1/HLA-expressing cells
Description: (§1) SET2 cells (DSMZ No. ACC 608) and BV173 cells (DSMZ No. ACC 20) were used as antigen-positive cancer cells (see Dao et al.; 2013). Binding was measured by flow cytometry utilizing a PE-conjugated goat anti-human IgG secondary antibody, and EC50 values were determined.
(§2) Example 4 was repeated with the antibodies of the present disclosure, i.e. binding to RNF/HLA-positive SET2 cells (DSMZ No. ACC 608) and BV173 cells (DSMZ No. ACC 20) was tested by flow cytometry. EC50 values were determined.

[6] = target: T3, RMF/HLA complex on antigen-positive …; experiment: flow cytometry on SET2 cells, IgG; '++' = EC50 below 10 nM, '+' = EC50 of more than 10 nM
Description: as §1, §2

[7] = target: T1, WT1 RMF peptide/HLA-A0201 complex …; experiment: ELISA on Neutravidin plates, Fab; '++' = EC50 below 10 nM, '+' = EC50 of more than 10 nM
[8] = target: T2, PIGQ peptide/HLA-A0201 complex; experiment: ELISA on Neutravidin plates, Fab; '---' = no binding
[9] = target: T1, WT1 RMF peptide/HLA-A0201 complex …; experiment: ELISA on Neutravidin plates, Fab; EC50 compared with the best reference Fab (not named)
Description: The binders were subjected to an in-depth characterization. They were directly compared to the antibodies of the prior art in an ELISA assay using Neutravidin plates as described in Example 3. For selected reference antibodies and binders of the present invention, the EC50 were determined.
Furthermore, none of the binders of the present invention show any binding to the counter targets, in particular no binding to the PIGQ/HLA complex.

[10] = target: T1, WT1 RMF peptide/HLA-A0201 complex …; experiment: Octet (BLI), IgG, apparent (bivalent) affinity; dissociation too slow for the limits of the system
Description: The apparent affinity of the binders Aali and Refmab #13 was measured for the RMF/HLA antigen with an Octet system. […] The binding of Aali was characterized by a very slow dissociation rate, which exceeded the specification limits that were set in the system.

[11] = target: T1, WT1 RMF peptide/HLA-A0201 complex …; experiment: Octet (BLI), Fab, antigen immobilized to Streptavidin
Description: Affinities of the Fab fragments of binders Aali and Refmab #13 for the antigen RMF/HLA were also measured with an Octet system using the antigen immobilized to Streptavidin.

[12] = target: T4, WT1 RMF peptide/HLA-A0201 complex (isolated, recombinant, biotinylated) (human); experiment: ELISA on Neutravidin plates, IgG; '++' = EC50 below 10 nM, '+' = EC50 of more than 10 nM
[13] = target: T4, WT1 RMF peptide/HLA-A0201 complex …; experiment: ELISA on Neutravidin plates, IgG
[14] = target: T4, WT1 RMF peptide/HLA-A0201 complex …; experiment: ELISA as in Example 3; biotinylated peptide/HLA complex coated at 50 nM on Neutravidin plates, IgG titrated, AP-conjugated goat anti-human IgG, RFU

Binder | EC50 [1] [nM] | EC50 [2] [nM] | EC50 (read off the curve) [3] [nM] | binding result [4] | EC50 [5] [nM] | EC50 [6] [nM] | EC50 [7] [nM] | binding result [8] | fold better EC50 than the best binder of the prior art [9] [fold] | Kd [10] [nM] | Kd [11] [nM] | EC50 [12] [nM] | EC50 [13] [nM] | EC50 (read off the curve) [14] [nM]
B1 | < 10 | < 1 | ~0.3 | no binding | > 10 | > 10 | – | – | – | – | – | – | – | –
B2 | – | – | – | – | – | – | < 10 | no binding | ≥ 3.3 | – | – | – | – | –
B3 | < 10 | < 1 | ~0.3 | no binding | > 10 | < 10 | – | – | – | – | – | – | – | –
B4 | < 10 | < 1 | ~0.3 | no binding | > 10 | > 10 | – | – | – | – | – | – | – | –
B5 | – | – | – | – | – | – | < 10 | no binding | ≥ 3.3 | – | – | – | – | –
B6 | – | – | – | – | – | – | > 10 | no binding | ≥ 3.3 | – | – | – | – | –
B7 | < 10 | < 1 | ~0.5 | no binding | > 10 | < 10 | – | – | – | < 0.5 | – | – | – | –
B8 | – | – | – | – | – | – | < 10 | no binding | ≥ 3.3 | – | 66 | – | – | –
B9 | – | – | – | no binding | > 10 | > 10 | – | – | – | – | – | < 10 | < 1 | ~0.3
B10 | – | – | – | no binding | > 10 | > 10 | – | – | – | – | – | < 10 | < 1 | ~0.3
